Results on 3 molecules are retold here after article PMC8119676, “Human ribonuclease 1 serves as a secretory ligand of ephrin A4 receptor and induces breast tumor initiation” (Nature Communications, 2021).

The term Kd denotes a measure of binding affinity in units of concentration.

In one experiment the target is EphA4 (Homo sapiens) (UniProt P54764). The note with it: cited from earlier work.
Experiment [1] addresses T1, endogenous EphA4 (human (endogenous in MCF7, BT-549, KPL4), UniProt P54764-1 20-986).
T1 construct: EphA4 receptor tyrosine kinase, endogenous in human breast cancer cell lines; On cells in the co-IP (ligand added to cells, DSP fixed) and in the PLA; also called ephrin A4 receptor
Put plainly: ELISA; saturation binding; EphA4 captured from BT-549 RIPA lysates on plates coated with EphA4 antibody; dilution series of recombinant hRNase 1 or ephrin-A5 in RIPA buffer overnight at 4 °C; biotin-conjugated detection antibodies; Kd estimated, Scatchard plot. The settings on record: one partner purified.

The target in experiment [2] is T1, endogenous EphA4. Put plainly: cell-based or functional assay.

T1 sequence (P54764 20-986): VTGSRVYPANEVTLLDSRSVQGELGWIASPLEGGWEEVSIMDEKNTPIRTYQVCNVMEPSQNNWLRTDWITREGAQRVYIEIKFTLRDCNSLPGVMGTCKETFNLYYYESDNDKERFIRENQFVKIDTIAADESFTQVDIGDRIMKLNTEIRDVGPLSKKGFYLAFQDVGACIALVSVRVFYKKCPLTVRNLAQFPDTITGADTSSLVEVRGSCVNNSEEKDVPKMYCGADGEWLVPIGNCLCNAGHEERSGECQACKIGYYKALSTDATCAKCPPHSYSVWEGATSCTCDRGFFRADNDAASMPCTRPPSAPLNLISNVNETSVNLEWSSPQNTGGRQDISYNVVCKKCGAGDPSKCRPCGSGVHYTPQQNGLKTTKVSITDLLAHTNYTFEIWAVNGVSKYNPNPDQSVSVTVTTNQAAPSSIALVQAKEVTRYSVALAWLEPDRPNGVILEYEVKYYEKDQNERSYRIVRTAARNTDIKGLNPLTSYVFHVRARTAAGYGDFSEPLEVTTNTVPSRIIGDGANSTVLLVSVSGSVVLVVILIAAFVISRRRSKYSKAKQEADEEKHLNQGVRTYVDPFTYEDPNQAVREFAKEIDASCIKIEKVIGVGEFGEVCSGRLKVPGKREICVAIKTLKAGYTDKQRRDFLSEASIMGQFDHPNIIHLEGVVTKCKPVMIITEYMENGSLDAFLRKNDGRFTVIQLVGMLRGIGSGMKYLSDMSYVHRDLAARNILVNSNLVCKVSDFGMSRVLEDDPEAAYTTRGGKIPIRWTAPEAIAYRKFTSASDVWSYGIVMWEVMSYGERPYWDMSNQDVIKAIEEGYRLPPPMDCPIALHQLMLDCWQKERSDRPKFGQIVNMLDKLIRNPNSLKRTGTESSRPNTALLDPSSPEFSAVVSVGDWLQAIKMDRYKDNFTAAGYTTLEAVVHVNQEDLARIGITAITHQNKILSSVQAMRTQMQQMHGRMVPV
Sequence of EphA4 (Homo sapiens) (P54764 20-547): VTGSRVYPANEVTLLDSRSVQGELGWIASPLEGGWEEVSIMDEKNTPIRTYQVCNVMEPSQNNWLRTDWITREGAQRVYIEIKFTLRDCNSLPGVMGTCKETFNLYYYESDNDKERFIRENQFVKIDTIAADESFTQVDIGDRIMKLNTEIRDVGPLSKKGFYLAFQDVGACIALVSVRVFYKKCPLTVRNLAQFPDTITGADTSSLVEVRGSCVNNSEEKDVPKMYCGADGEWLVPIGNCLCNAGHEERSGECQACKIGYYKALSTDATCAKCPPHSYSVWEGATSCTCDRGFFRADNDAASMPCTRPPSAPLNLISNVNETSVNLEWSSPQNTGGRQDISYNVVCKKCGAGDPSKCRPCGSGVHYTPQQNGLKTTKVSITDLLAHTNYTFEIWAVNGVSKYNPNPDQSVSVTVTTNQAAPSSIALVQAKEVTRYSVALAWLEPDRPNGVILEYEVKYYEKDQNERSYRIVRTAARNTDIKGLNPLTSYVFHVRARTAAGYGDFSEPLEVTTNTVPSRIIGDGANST

Ephrin-A5 (from UniProt P52803): the Kd with EphA4 (Homo sapiens) is less than 10 nM.

B1: recombinant ephrin-A5 (ligand, UniProt P52803 21-203, looked up)
chain: QDPGSKAVADRYAVYWNSSNPRFQRGDYHIDVCINDYLDVFCPHYEDSVPEDKTERYVLYMVNFDGYSACDHTSKGFKRWECNRPHSPNGPLKFSEKFQLFTPFSLGFEFRPGREYFYISSAIPDNGRRSCLKLKVFVRPTNSCMKTIGVHDRVFDVNDKVENSLEPADDTVHESAEPSRGEN
notes: ephrin-A5, recombinant; 5.6 nM is printed as equivalent to 0.15 μg/ml, which implies about 27 kDa
On to B1, for which the Kd with endogenous EphA4 [1] was 5.6 nM.

B2: recombinant hRNase 1 protein purified from HEK293 cells (enzyme, human, UniProt P07998 29-156, looked up)
chain: KESRAKKFQRQHMDSDSSPSSSSTYCNQMMRRRNMTQGRCKPVNTFVHEPLVDVQNVCFQEKVTCKNGQGNCYKSNSSMHITDCRLTNGSRYPNCAYRTSPKERHIIVACEGSPYVPVHFDASVEDST
modifications: N-linked glycosylation, heterogeneous (glycosylated and non-glycosylated bands; sites reported at Asn-34, Asn-76, Asn-88)
notes: human ribonuclease 1 (hRNase 1), bought recombinant protein; The ELISA methods say only 'recombinant hRNase 1'; also called human ribonuclease 1; source: bought: Sino Biological Inc. #13468-H08H, purified from HEK293 cells
On to B2, for which the Kd with endogenous EphA4 [1] is 92.4 nM. Further, in the experiment with endogenous EphA4 [2], the “EC50 of EphA4 phosphorylation (pY779-EphA4, WB) in BT-549 cells treated with hRNase 1 at various concentrations for 30 min” value turned out to be 9.85 nM.
